In IntAct's records for PubMed 26853155:

B1: Syncytin-2 (Homo sapiens), P60508 (parent)
chain: MGLLLLVLILTPSLAAYRHPDFPLLEKAQQLLQSTGSPYSTNCWLCTSSSTETPGTAYPASPREWTSIEAELHISYRWDPNLKGLMRPANSLLSTVKQDFPDIRQKPPIFGPIFTNINLMGIAPICVMAKRKNGTNVGTLPSTVCNVTFTVDSNQQTYQTYTHNQFRHQPRFPKPPNITFPQGTLLDKSSRFCQGRPSSCSTRNFWFRPADYNQCLQISNLSSTAEWVLLDQTRNSLFWENKTKGANQSQTPCVQVLAGMTIATSYLGISAVSEFFGTSLTPLFHFHISTCLKTQGAFYICGQSIHQCLPSNWTGTCTIGYVTPDIFIAPGNLSLPIPIYGNSPLPRVRRAIHFIPLLAGLGILAGTGTGIAGITKASLTYSQLSKEIANNIDTMAKALTTMQEQIDSLAAVVLQNRRGLDMLTAAQGGICLALDEKCCFWVNQSGKVQDNIRQLLNQASSLRERATQGWLNWEGTWKWFSWVLPLTGPLVSLLLLLLFGPCLLNLITQFVSSRLQAIKLQTNLSAGRHPRNIQESPF
partner: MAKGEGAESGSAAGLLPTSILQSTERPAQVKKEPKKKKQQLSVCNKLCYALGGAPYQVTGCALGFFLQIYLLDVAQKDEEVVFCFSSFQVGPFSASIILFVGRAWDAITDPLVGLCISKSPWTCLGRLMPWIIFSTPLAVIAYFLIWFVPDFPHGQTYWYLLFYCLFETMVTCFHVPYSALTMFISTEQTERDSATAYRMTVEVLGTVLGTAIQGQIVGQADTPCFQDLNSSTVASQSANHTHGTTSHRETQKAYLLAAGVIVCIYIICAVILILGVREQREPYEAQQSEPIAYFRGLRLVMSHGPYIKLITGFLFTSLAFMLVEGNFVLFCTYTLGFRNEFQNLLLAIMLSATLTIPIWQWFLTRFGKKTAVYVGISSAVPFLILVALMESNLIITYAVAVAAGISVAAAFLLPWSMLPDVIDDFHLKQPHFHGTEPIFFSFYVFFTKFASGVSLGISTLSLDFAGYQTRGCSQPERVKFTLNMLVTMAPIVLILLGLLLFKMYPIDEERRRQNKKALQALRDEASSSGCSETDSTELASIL

Variants of: B1
Details: with nls1_human MFSD2A

Variant | effect of a mutation on the interaction
N133Q | decreasing interaction strength
T522M | decreasing interaction strength
N443Q | disrupting interaction strength
N312Q | decreasing interaction strength
C46R | decreasing interaction strength
T367M | disrupting interaction strength
N118S | increasing interaction strength
R417H | decreasing interaction strength
N332Q | decreasing interaction strength
V483I | decreasing interaction strength
